Tests used:
Test in all cases: BLI; Octet RED96; client biotinylated and loaded on streptavidin sensors; Spy or Spy variant in solution at 0.25, 0.5, 1, 1.5 and 2 μM; 40 mM HEPES, 150 mM NaCl, pH 7.5; Kd calculated as koff/kon
Conditions in all cases: both partners purified
Spy_(21-124) = target: T1, Spy_(21-124) (UniProt P77754 44-147)
T1 construct: source: E. coli BL21 (DE3), purified (Ni-NTA, cation exchange, SEC); not shown: His6, N-terminal, cleaved; SUMO, N-terminal, cleaved
T1 sequence (looked up): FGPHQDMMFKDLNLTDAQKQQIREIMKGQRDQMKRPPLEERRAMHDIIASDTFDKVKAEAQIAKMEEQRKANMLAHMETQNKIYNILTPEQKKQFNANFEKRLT
Outline: (§1)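 Client proteins were biotinylated with EZ-link NHS-biotin at a 1:1 molar ratio, loaded onto streptavidin sensors, and measured by biolayer interferometry on an Octet RED96. The loaded sensors were dipped into 40 mM HEPES, 150 mM NaCl, pH 7.5 holding the analyte protein at 0.25, 0.5, 1, 1.5 or 2 μM, then moved to buffer without it. Fitting the wavelength-shift association and dissociation curves in SigmaPlot 12.0 gave the observed association rate and koff, kon was taken from the observed rate plotted against analyte concentration, and Kd was calculated as koff/kon.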

Spy_(24-130) = target: T2, Spy_(24-130) (UniProt P77754 47-153)
T2 construct: Spy chaperone, residues 24-130; source: E. coli BL21 (DE3), purified (Ni-NTA, cation exchange, SEC); not shown: His6, N-terminal, cleaved; SUMO, N-terminal, cleaved
T2 sequence (looked up): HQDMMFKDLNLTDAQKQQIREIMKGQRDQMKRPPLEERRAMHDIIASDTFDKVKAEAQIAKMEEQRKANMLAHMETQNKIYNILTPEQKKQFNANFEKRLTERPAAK
Outline: as §1

Spy_(24-124) = target: T3, Spy_(24-124) (UniProt P77754 47-147)
T3 construct: source: E. coli BL21 (DE3), purified (Ni-NTA, cation exchange, SEC); not shown: His6, N-terminal, cleaved; SUMO, N-terminal, cleaved
T3 sequence (looked up): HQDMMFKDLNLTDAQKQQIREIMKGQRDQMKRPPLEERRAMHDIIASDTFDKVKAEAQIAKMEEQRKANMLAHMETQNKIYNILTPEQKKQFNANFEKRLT
Outline: as §1

Spy_(21-127) = target: T4, Spy_(21-127) (UniProt P77754 44-150)
T4 construct: Spy chaperone, residues 21-127; source: E. coli BL21 (DE3), purified (Ni-NTA, cation exchange, SEC); not shown: His6, N-terminal, cleaved; SUMO, N-terminal, cleaved
T4 sequence (looked up): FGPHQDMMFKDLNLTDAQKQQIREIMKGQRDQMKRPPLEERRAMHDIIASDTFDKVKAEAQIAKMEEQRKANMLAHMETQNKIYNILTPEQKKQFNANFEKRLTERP
Outline: as §1

Spy_(27-130) = target: T5, Spy_(27-130) (UniProt P77754 50-153)
T5 construct: Spy chaperone, residues 27-130; source: E. coli BL21 (DE3), purified (Ni-NTA, cation exchange, SEC); not shown: His6, N-terminal, cleaved; SUMO, N-terminal, cleaved
T5 sequence (looked up): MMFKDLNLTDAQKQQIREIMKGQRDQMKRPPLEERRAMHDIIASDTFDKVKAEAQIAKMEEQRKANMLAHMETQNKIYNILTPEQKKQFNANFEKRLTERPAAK
Outline: as §1

Spy_(29-130) = target: T6, Spy_(29-130) (UniProt P77754 52-153)
T6 construct: Spy chaperone, residues 29-130; source: E. coli BL21 (DE3), purified (Ni-NTA, cation exchange, SEC); not shown: His6, N-terminal, cleaved; SUMO, N-terminal, cleaved
T6 sequence (looked up): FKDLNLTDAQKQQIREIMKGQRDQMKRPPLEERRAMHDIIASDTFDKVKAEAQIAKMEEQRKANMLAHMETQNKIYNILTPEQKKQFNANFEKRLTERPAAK
Outline: as §1

Spy_(27-124) = target: T7, Spy_(27-124) (UniProt P77754 50-147)
T7 construct: source: E. coli BL21 (DE3), purified (Ni-NTA, cation exchange, SEC); not shown: His6, N-terminal, cleaved; SUMO, N-terminal, cleaved
T7 sequence (looked up): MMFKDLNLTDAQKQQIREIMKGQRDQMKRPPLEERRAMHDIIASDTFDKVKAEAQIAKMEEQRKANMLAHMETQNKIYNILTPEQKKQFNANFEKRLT
Outline: as §1

Spy_(1-124) = target: T8, Spy_(1-124) (UniProt P77754 24-147)
T8 construct: source: E. coli BL21 (DE3), purified (Ni-NTA, cation exchange, SEC); not shown: His6, N-terminal, cleaved; SUMO, N-terminal, cleaved
T8 sequence (looked up): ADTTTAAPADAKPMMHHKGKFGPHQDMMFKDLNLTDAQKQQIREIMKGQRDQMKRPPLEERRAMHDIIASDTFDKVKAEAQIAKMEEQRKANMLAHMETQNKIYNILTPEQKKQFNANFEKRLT
Outline: as §1

B1: Im7 H40W L53A I54A (natural protein)
chain: MELKNSISDYTEAEFVQLLKEIEKENVAATDDVLDVLLEWFVKITEHPDGTDAAYYPSDNRDDSPEGIVKEIKEWRAANGKPGFKQG
modifications: biotin (EZ-link NHS-biotin, 1:1 molar ratio of biotin to protein)
notes: Im7 (colicin E7 immunity protein) with H40W L53A I54A; Spy was made with an N-terminal His6-SUMO tag that was cleaved; also called Im7AAW; partially folded client; source: purified by a similar procedure to Spy
- kon (Spy_(21-124)): 267000 M⁻¹ s⁻¹
- kon (Spy_(24-130)): 210000 M⁻¹ s⁻¹
- kon (Spy_(24-124)): 258000 M⁻¹ s⁻¹
- kon (Spy_(21-127)): 258000 M⁻¹ s⁻¹
- kon (Spy_(27-130)): 313000 M⁻¹ s⁻¹
- kon (Spy_(29-130)): 283000 M⁻¹ s⁻¹
- kon (Spy_(27-124)): 314000 M⁻¹ s⁻¹
- kon (Spy_(1-124)): 203000 M⁻¹ s⁻¹

From publication PMC9122904, “Insights into the client protein release mechanism of the ATP-independent chaperone Spy” (Nature Communications, 2022)
